The nature of this data set: amyloid nucleation score (Sup35N fusion, yeast selection) (log enrichment); library NNK2; higher = more nucleation; inactive = no reads after selection. Summed up:
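Three technical output replicates were used for random libraries. Psi-negative yeast expressing peptides of 20 random codons fused to Sup35N were induced with 100 μM copper sulfate for 24 hours and grown 7 days at 30°C on medium lacking adenine and uracil, and input and output plasmid inserts were Illumina-sequenced, excluding sequences with under 100 input reads. The nucleation score is the DiMSum log enrichment of output over input reads, centred on the mode score of non-aggregating sequences.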

± gives the uncertainty stated by the source.

The substance HQMRFPGSPMATVGSLRTCR displayed an amyloid nucleation score of -0.528 ± 0.42. Substance WDGYGVYFQTQAKVR registered an amyloid nucleation score of 0.102 ± 0.63. VCCFLLHQN displayed an amyloid nucleation score of 6.88 ± 0.083. The substance RSTPLKYNLRFIPLSHGRRV came in with an amyloid nucleation score of -0.431 ± 0.48.

In turn, RRLLLLGSFWGSVHQHVTSS registered an amyloid nucleation score of -0.207 ± 0.4. As to MDLVSSFRLNVCGT, the amyloid nucleation score is 0.089 ± 0.5.

Regarding DFIITVL, the amyloid nucleation score was -1.05 ± 0.78. TESGGSLYNPQLIPDIQGSH: the amyloid nucleation score was -0.552 ± 1.1. For the substance GISVLRQTVFDLSIFIPHTS, the amyloid nucleation score was determined as 4.42 ± 0.055. As for PDFSDFITHLIGFRSMGTGG, the amyloid nucleation score is -0.694 ± 1.1.

As for NEDLIEKSLFCLAYSLFPTS, the amyloid nucleation score is -0.266 ± 0.62.

Substance KNYVYWDLIHRFCLSTMR registered an amyloid nucleation score of 1.62 ± 0.52. As to AFGNNDDLGARRYGMATPGR, the amyloid nucleation score was determined as 0.746 ± 0.62.

In turn, QRGFLRVPSLWCSFCLH returned an amyloid nucleation score of -0.176 ± 1.1. Substance IVNSKFKHAGVHPFDSL came in with an amyloid nucleation score of -0.125 ± 0.79. In turn, WDALGNVRRAMWVPS came in with an amyloid nucleation score of 0.048 ± 0.41. The substance TIIIREQSKPFPCLE came in with an amyloid nucleation score of 0.931 ± 0.74. On to ARNYGRTWHTSEESWYFGEV, for which the amyloid nucleation score is 5.8 ± 0.081. As to RQARRRRTSRQHEKGV, the amyloid nucleation score is 1.49 ± 0.16. STEERRWNN showed an amyloid nucleation score of -0.217 ± 0.79. As to TKFMIYRDYSLVKSHH, the amyloid nucleation score entry is “inactive”. In turn, ILAQNCSFYLGVTLRIARRH registered an amyloid nucleation score of 1.21 ± 0.43.

The substance GALRGGVTRLQILRCFFYFW had an amyloid nucleation score of 0.491 ± 0.74. The substance LLASFGFRKVKIYTLPCILA gave an amyloid nucleation score of -1.15 ± 0.76. As for IDKSG, the figure is 2.44 ± 0.14; as for GMVDLGVGSWCMEP, 0.893 ± 0.15; as for NIRMVNLLAYVCPEVIREAC, “inactive”. Next, CCNIGHNVMNY: 2.9 ± 0.11. RRPKHYMAVMSESVGLQCRL registered an amyloid nucleation score of 0.173 ± 0.37. As to SRLSKTRLPFWHFMNMLKMP, the amyloid nucleation score is 0.126 ± 0.56. Take LVHCLSPRIVATGVPHGMMV: the amyloid nucleation score came out at 1.04 ± 0.35.

As to WFHGTGSQHS, the amyloid nucleation score entry is “inactive”. In the case of FCAQITPHRISWLWWQINRQ, the amyloid nucleation score was -0.304 ± 1.1.

With MSVTWYLGNWVTVL, the amyloid nucleation score was -1.09 ± 0.79.

In the case of VKVQKINGGCVGFDLTWLCN, the amyloid nucleation score was 8.863 ± 0.034. On to YDLSLVWWSTMFFRLCSLGC, for which the amyloid nucleation score was -0.601 ± 0.41. Take FCLGRMLARPRRTCYTDENM: the amyloid nucleation score was -0.126 ± 0.49. As to RLLTSHD, the amyloid nucleation score was found to be 4.12 ± 0.089. PLGPNSTYFVWASSWAFYRP returned an amyloid nucleation score of -1.65 ± 0.78. Next, NSTLGGVFACYYFALSHAAE: 6.41 ± 0.059; SFGENLVYCMRSIVTSPYRL: -0.364 ± 0.24. Next, HRTLMIVKLCKRSGPFIL: -1.22 ± 0.42; MFFFYKFMKDKIGN: 4.37 ± 0.051; HVVVDCISNCEFTCMWCSAY: 5.57 ± 0.06. Take FIICTEWPSDLLNWSSVANW: the amyloid nucleation score was -0.658 ± 1.

Turning to NVFLS, the amyloid nucleation score entry is “inactive”. RFIND yielded an amyloid nucleation score of -0.703 ± 1. Substance IFFFWVLMRYW registered an amyloid nucleation score of -0.689 ± 0.55. The substance RRMNHLPFCCKRYRTSRPKF showed an amyloid nucleation score of 0.222 ± 0.64. On to LRFNSNHPHFRGHLYSAVQR, for which the amyloid nucleation score was 3.7 ± 0.15.

YCTGPVIWPWHKGLLSWYAW registered an amyloid nucleation score of 1.19 ± 0.57. As to ERSCSDIAGYPRPHGVQRNA, the amyloid nucleation score was 3.01 ± 0.081. FNMDGYGRTGVRPFCRYVLN: the amyloid nucleation score came to 0.333 ± 0.61. For LLVRFVLVATRRTLSTV, the amyloid nucleation score is -0.029 ± 1.1.

FFTAMDASRSRLKCSYAVQT registered an amyloid nucleation score of 3.28 ± 0.13.

Turning to HLVIGFHYSCHGFFLRSFGH, the amyloid nucleation score result was “inactive”. Take CASWLVCMFRGMFRVLNTSG: the amyloid nucleation score came to 2.82 ± 0.17. Next, LFNEDACTFLTMCANIKVGQ: 4.97 ± 0.081; ICFWMACKIECCQQRTNFVS: -0.139 ± 0.26; FCNLN: -0.02 ± 0.28.

On to VINLRLLLIVLDGDIDYWCV, for which the amyloid nucleation score result was “inactive”. Regarding NKEKN, the amyloid nucleation score was 2.58 ± 0.13. As for SFRRSPELSQEFTRGYDSYR, the amyloid nucleation score was -0.276 ± 0.76. Take IPTFKDLGFISESIMYNG: the amyloid nucleation score was -1.38 ± 0.42.

With WGCSHKLTCVGARHLVLD, the amyloid nucleation score is 2.46 ± 0.17. Regarding LKFRRYVCKVLWEAYG, the amyloid nucleation score was found to be 0.153 ± 0.43. In the case of LLWCEWKHG, the amyloid nucleation score was determined as 4.58 ± 0.076. As for FFYRVPDITSDAGITQLLAQ, the figure is 5.483 ± 0.048; as for FNVSYSISMMLKRGVCAHCW, 6.038 ± 0.034.

YMKNSGHDMASLRNIYLIFR returned an amyloid nucleation score of 5.15 ± 0.075.

As for SYNVFDVQIVLRYIVKLFTG, the amyloid nucleation score entry was “inactive”. Next, MERIPVVSDMGRLGFSACRL: 0.821 ± 0.23; SSRQTVGNTPASDLLRDYCW: 0.388 ± 0.38. As for GKYMEDYNAENQNPSTMMES, the figure is -0.01 ± 0.47; as for LIGFLEEKVLLFIITWCFQ, “inactive”. With TFVGSFEILAGNVLCVNKTK, the amyloid nucleation score came to 6.031 ± 0.048. As to GNLDRYRYLETDKSGAMLGV, the amyloid nucleation score was 4.3 ± 0.064. The substance MSKEVVSSGYVIHIRRQRGG came in with an amyloid nucleation score of 0.82 ± 0.57. In turn, NGVKGLKIMDSRSGVT had an amyloid nucleation score of 6.043 ± 0.046. For TTMSTGARGLSRCLSVVFRR, the amyloid nucleation score turned out to be 3.08 ± 0.12. On to YLFKPSPTSHYCAFCTVYRN, for which the amyloid nucleation score turned out to be 3.84 ± 0.079. LCYPCRACPGTKNALADRLG: the amyloid nucleation score was 3.56 ± 0.087.

Substance NLVAMPDQVAGSTCRVCNNN showed an amyloid nucleation score of 0.486 ± 0.51. Turning to RRPFVRRLFVLKNMFNSLGR, the amyloid nucleation score was -0.707 ± 1.1. As to VVMHQSAVCYEHEMTLVRRF, the amyloid nucleation score is 0.027 ± 1. As for TKQPSFTCPGLSSRILRRLK, the figure is 3.04 ± 0.18; as for MLLIIVWQILMKLNGWITVL, “inactive”; as for FFWSLGSYILHYC, “inactive”. The substance VTFYGGAYSENYLVRCYALN registered an amyloid nucleation score of 4.47 ± 0.057. The substance CNRVHYFFCFSCLWMFVFID displayed an amyloid nucleation score of -2.07 ± 1.1. With SFKICKLMNSNRFFVGICCT, the amyloid nucleation score was determined as 0.057 ± 1.1. Next, NINNFLSISIFNGYASHVNC: “inactive”. The substance ISTIWFRLQTGARKTRLLFD came in with an amyloid nucleation score of -0.735 ± 0.79. Turning to IRPSLGRR, the amyloid nucleation score is 1.79 ± 0.26.

The substance DMLEKKE came in with an amyloid nucleation score of 5.921 ± 0.059. SQGGIRWY came in with an amyloid nucleation score of -0.842 ± 0.38. Next, IHLLPLPYEVPSLLCTSRGP: 0.258 ± 0.4; MCGNWLD: 3.05 ± 0.055. MWIYNY displayed an amyloid nucleation score of 2.78 ± 0.087. Next, VYGFP: 7.112 ± 0.048. Take AGIFQNSRRNPYRVYMMSVY: the amyloid nucleation score was found to be 3.31 ± 0.06. As for VICLTIYRIDECLVCLLYVA, the amyloid nucleation score was -0.405 ± 0.33. In turn, KLIYLGGSSEFGTHFSA showed an amyloid nucleation score of -0.429 ± 0.61.

CNFLQDNVEGVCYNRFKDCL returned an amyloid nucleation score of 0.601 ± 0.49. Take LLGGHYP: the amyloid nucleation score turned out to be 0.844 ± 0.52. On to SDRMLCEGNYCWCVSENVLL, for which the amyloid nucleation score was 6.12 ± 0.061.

SRSKGYLYGIMSAKLRCSLK returned an amyloid nucleation score of 0.206 ± 0.39. Consider HGETTTGILIELFVIWYVNS, for which the amyloid nucleation score entry was “inactive”.

CPRPTCAPHCWYFVLAMVAR yielded an amyloid nucleation score of -0.4 ± 0.64. Regarding NHVNNLIHDFRPALEHLRDT, the amyloid nucleation score was -0.134 ± 0.45. For ATRGHIWDCSFGADYQCIPS, the amyloid nucleation score came to 5.97 ± 0.063.

NRYTNGPNF showed an amyloid nucleation score of -0.106 ± 0.29. As for GMPQESHSYPLYEMLLGRVG, the amyloid nucleation score was -0.064 ± 0.3.

Consider HWFNSTRK, for which the amyloid nucleation score was found to be 0.187 ± 0.36. In turn, TRMMCKRFRIML returned an amyloid nucleation score of 0.544 ± 0.49. Next, RSSGSSWRLNYLDEDTVVAR: 1 ± 0.4; CVVECIRSNHPSNFMMRNLG: “inactive”; REWWYKKALPQCENTIGVGQ: 0.721 ± 0.47. NQFLMVWSDIDVRKDVRFLH displayed an amyloid nucleation score of -0.977 ± 0.48. As for THYNVGLINNIINNLILVYI, the figure is 4.52 ± 0.12; as for AFPLRTVISGN, 0.484 ± 0.8. LNNYRDGLSY: the amyloid nucleation score was found to be 4.1 ± 0.064. Turning to RNAEA, the amyloid nucleation score is -0.5 ± 0.63.

Substance PVPNYCSEII returned an amyloid nucleation score of -1.1 ± 1.

CPCSRCLVDNKVRL returned an amyloid nucleation score of -0.41 ± 0.45.

On to LYGNYDTSYTLIQVISLRNG, for which the amyloid nucleation score was 6.202 ± 0.04. On to AEYRNDMAIEVSSSYCCGY, for which the amyloid nucleation score stood at 3.43 ± 0.082. Turning to NHLGLTDCTFQGLDSG, the amyloid nucleation score is -1.09 ± 1.1. SSNALKGDGSFGQNEVESAK returned an amyloid nucleation score of -0.043 ± 0.32.

LWFKCGHSIQGLVRVTESGS showed an amyloid nucleation score of -0.15 ± 0.27. With MRLVSSDDFCV, the amyloid nucleation score turned out to be 0.097 ± 0.8. In turn, NFVKRV registered an amyloid nucleation score of -0.509 ± 0.48. Turning to YLRRL, the amyloid nucleation score was -0.775 ± 0.61. In turn, MASVMLQCHGCPLGKGTARA gave an amyloid nucleation score of 0.879 ± 0.41. In turn, VRPRGTKRCFFGRNHWRSSF gave an amyloid nucleation score of 0.428 ± 0.66. In turn, DMFIVYSSLYRSFLIFESLH displayed an amyloid nucleation score of -2.42 ± 0.75. As for FALNPAESLHIRYIGLALF, the amyloid nucleation score was -1.02 ± 0.62. As for SLMFGLIHSWDMK, the entry is “inactive”. In turn, GAAHDSYMNRWLITWNSKCK yielded an amyloid nucleation score of -1.52 ± 0.76.

These data come from the supplement of paper PMC12042874.
